Experimental data reported in publication PMC3201873.

Key:
[1] = molecular target: full-length GyrB from M. tuberculosis (M. tuberculosis); assay: far-Western, overlay or dot blot
[2] = molecular target: GyrA–SBP (GyrA fused to a Streptavidin-Binding Peptide) (M. tuberculosis) (UniProt P9WG47); assay: SPR

Sequence of full-length GyrB from M. tuberculosis (M. tuberculosis) (A5TY73 whole entry, the tested form may be a part): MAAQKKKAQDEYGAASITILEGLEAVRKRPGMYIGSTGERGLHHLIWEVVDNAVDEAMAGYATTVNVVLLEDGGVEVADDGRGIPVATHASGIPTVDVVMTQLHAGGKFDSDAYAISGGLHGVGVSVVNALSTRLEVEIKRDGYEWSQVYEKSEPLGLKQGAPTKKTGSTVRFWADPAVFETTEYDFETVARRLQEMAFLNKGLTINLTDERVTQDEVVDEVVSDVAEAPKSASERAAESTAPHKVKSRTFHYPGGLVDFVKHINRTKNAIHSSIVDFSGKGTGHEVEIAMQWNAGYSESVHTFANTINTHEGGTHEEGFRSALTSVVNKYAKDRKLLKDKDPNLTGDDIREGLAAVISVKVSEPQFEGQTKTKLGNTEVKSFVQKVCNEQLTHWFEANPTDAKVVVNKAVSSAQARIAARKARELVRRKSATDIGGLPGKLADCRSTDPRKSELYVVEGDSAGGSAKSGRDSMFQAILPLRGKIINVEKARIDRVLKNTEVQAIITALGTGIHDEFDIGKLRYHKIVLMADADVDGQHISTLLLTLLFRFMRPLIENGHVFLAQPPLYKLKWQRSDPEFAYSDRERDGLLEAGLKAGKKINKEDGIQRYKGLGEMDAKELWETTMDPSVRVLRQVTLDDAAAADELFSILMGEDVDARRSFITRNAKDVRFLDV

Row | Substance | fold stronger with negatively supercoiled pBR322 than without DNA [1] | Ka [2] | koff [2]
1 | GyrA–SBP (GyrA fused to a Streptavidin-Binding Peptide) (from UniProt P9WG47 1-838) (natural protein) | 9 fold |  | 
2 | full-length GyrB from M. tuberculosis (natural protein) |  | 6.2e+07 M⁻¹ | 0.00101 s⁻¹
